T1: human TEM1 (endosialin/CD248) (human) (UniProt Q9HCU0)
T1 sequence (chain, biotinylated in the SPR assay of Table 6 (sites not stated)): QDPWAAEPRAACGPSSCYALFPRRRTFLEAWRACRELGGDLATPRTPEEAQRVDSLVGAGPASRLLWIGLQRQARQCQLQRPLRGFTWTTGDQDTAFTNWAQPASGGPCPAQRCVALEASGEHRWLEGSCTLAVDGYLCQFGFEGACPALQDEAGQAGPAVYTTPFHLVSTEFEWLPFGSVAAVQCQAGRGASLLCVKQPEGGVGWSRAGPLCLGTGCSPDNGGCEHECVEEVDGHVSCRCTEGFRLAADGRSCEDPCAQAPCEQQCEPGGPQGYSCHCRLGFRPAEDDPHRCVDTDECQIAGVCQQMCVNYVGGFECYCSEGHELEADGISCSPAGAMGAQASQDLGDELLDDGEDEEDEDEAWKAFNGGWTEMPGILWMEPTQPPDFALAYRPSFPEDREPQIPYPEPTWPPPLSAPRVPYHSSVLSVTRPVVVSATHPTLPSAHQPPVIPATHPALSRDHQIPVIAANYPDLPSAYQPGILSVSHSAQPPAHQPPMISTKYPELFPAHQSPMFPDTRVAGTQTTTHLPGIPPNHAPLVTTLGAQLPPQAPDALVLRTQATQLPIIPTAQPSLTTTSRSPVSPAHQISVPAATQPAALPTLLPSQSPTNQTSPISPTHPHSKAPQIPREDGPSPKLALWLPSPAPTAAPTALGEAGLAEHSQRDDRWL


Biological target: T1, human TEM1 (endosialin/CD248) (human)
Assay: SPR (BIAcore), biotin-hTEM1 captured on CAP chip, antibody 0-50 nM as analyte

Row | Kd | koff | kon | Binder
1 | 0.015 nM | 5.8e-05 s⁻¹ | 3.7e+06 M⁻¹ s⁻¹ | 1-55-2 (rabbit anti-hTEM1 mAb) (antibody, V domains shown) VH: QSVEESGGDLVKPEGSLTLTCTASGFSFSSSYWGCWVRQAPGKGPEWIACIYGGSSGTTYYPNWAKGRFSISKTSSTTVTLQMASLTAADTATYFCARVTNGGDWDFKLWGPGTLVTISS VL: ELVMTQTPASVEVAVGGTVTIKCQASQSINTYLAWYQQKPGQPPKLLIYRASTLASGVPSRFKGSGSGTEFTLTISDLECADAATYYCQQSVRVIDVDNTFGGGTEVVVK
2 | 0.046 nM | 7.1e-05 s⁻¹ | 1.5e+06 M⁻¹ s⁻¹ | xi1-55-2 (rabbit/human chimerized 1-55-2 mAb) (antibody, human IgG1, kappa, V domains shown) VH: QSVEESGGDLVKPEGSLTLTCTASGFSFSSSYWGCWVRQAPGKGPEWIACIYGGSSGTTYYPNWAKGRFSISKTSSTTVTLQMASLTAADTATYFCARVTNGGDWDFKLWGPGTLVTISS VL: ELVMTQTPASVEVAVGGTVTIKCQASQSINTYLAWYQQKPGQPPKLLIYRASTLASGVPSRFKGSGSGTEFTLTISDLECADAATYYCQQSVRVIDVDNTFGGGTEVVVKR
